Molecular target: KIR3DL1-Fc (UniProt P43629)
Assay: SPR; Biacore T200; KIR3DL1-Fc coupled to a series S Protein A chip at ~1000 RU; soluble monomers injected at 0-193 uM (wild type) or 0-234 uM (V97S); contact 300 s, dissociation 700 s; 25 C; HBS-EP+ buffer; 1:1 binding model

UniProt P43629, sequence (P43629 22-320): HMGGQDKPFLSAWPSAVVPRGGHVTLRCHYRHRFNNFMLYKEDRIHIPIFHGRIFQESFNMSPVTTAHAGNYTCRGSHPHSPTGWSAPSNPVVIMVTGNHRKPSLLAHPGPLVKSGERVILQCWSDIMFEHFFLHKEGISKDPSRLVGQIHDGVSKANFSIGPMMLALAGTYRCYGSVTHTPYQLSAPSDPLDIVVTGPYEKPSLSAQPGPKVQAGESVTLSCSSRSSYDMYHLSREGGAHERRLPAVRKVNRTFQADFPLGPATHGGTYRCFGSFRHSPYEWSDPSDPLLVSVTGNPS

soluble HLA-B*5701 V97S mutant monomer in complex with the TW10 peptide (from UniProt P61769 21-119) (peptide-MHC)
Kd: 185 µM

Source: publication PMC11329236
